T1: FtsZ from Pseudomonas aeruginosa (P. aeruginosa, UniProt P47204 1-394)
T1 construct: FtsZ, Pseudomonas aeruginosa; pET15b containing the entire ftsZ gene (NdeI/BamHI); His6 tag removed with thrombin; The construct is from Chen et al., 2012; Residues of the vector may be left after the thrombin cut; Forms protofilaments with GTP; also called PaFtsZ; source: E. coli BL21(DE3), purified (Talon column, thrombin, source Q column)
T1 sequence (looked up): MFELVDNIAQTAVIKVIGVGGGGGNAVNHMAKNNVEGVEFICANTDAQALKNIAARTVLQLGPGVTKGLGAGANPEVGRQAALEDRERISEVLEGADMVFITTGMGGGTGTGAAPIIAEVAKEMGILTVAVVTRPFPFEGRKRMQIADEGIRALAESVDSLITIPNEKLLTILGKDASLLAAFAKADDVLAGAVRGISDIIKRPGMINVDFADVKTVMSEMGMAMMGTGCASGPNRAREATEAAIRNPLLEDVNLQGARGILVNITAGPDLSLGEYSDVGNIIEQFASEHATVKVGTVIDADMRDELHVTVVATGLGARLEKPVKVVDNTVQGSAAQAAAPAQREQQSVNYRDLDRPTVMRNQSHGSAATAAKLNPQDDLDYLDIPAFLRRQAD

B1: ZapA (PA5227) from Pseudomonas aeruginosa (natural protein, P. aeruginosa, UniProt Q9HTW3 1-104, looked up)
chain: MSQSNTLTVQILDKEYCINCPDDERANLESAARYLDGKMREIRSSGKVIGADRVAVMAALNITHDLLHRKERLDQESSSTRERVRELLDRVDRALANPADAGEA
notes: pET15b containing the entire zapA gene (NdeI/BamHI); The construct is from Rahman et al., 2020; Stored and used with the His6 tag; also called PA5207; source: E. coli BL21(DE3), purified (Talon column)
B2: ZapA-Like protein (ZapAL; PA5407) from Pseudomonas aeruginosa (natural protein, P. aeruginosa, UniProt Q9HTF7 1-96, looked up)
chain: MSRDGVQVLSILGRDYSIRVPAGEERALADAAALLQAEVDANKRKFPYVTSNELVVLSALNLCARQLGANDGESPRLRAVEQRLEALVERIAGASG
notes: ZapA-Like protein ZapAL (PA5407), Pseudomonas aeruginosa, 96 amino acids; pET15b containing the entire zapAL gene (NdeI/BamHI); Stored and used with the His6 tag; also called ZapL; source: E. coli BL21(DE3), purified (Talon column)

Legend:
[1] = molecular target: T1, FtsZ from Pseudomonas aeruginosa; assay: light scattering; FtsZ with ZapAL, ZapA or a 1:1 mixture of both, mixed with 1 mM or 0.1 mM GTP, HMK buffer (50 mM HEPES pH 7.5, 5 mM MgAc, 100 mM KAc), room temperature, 340 nm; details: both partners purified
[2] = molecular target: T1, FtsZ from Pseudomonas aeruginosa; assay: co-sedimentation; 15 uM FtsZ with 15 or 30 uM ZapAL, 1 mM GTP, 10 min at room temperature, 80,000 rpm for 30 min at 25 C (Beckman TLA100); pellet and supernatant by SDS-PAGE and ImageJ; details: both partners purified

Binder	binding result [1]	stoichiometry N [2]
B1	binds	
B2		~1 FtsZ:ZapAL (molar ratio)

— article PMC8371321, “A Novel Z-Ring Associated Protein ZapA-Like Protein (PA5407) From Pseudomonas aeruginosa Promotes FtsZ to Form Double Filaments” (Frontiers in Microbiology, 2021)
